As a reminder, the Kd is the free concentration of one partner at which half of the binding sites on the other are occupied at equilibrium, for simple one-to-one binding. Usually koff stands for the first-order rate constant of dissociation. For orientation: kon means the rate constant with which the complex forms.

One test has as its target rat OX40-Fc (rat). Description: ELISA on coated rat OX40-Fc. The method, then:
(§1) These constructs were expressed in HEK293-EBNA1 cells and purified using protein A. Then, human and rat OX40-Fc were tested in ELISA and Biacore to determine antibody cross-reactivity. For the ELISA, 96 well-microtiter plates (Costar USA, distributor VWR AG, Nyon, Switzerland) were coated with 100 μl of recombinant human or rat OX40-Fc at 2 μg/ml in PBS. Plates were incubated overnight at 4° C. and were then blocked with PBS 2% BSA (Bovine Serum Albumine, PAA Laboratories, Pasching, Austria) at room temperature (RT) for one hour. The blocking solution was removed and the purified antibodies were added at 10 μg/ml in PBS 2% BSA. The plates were incubated at RT for 1 hour, then washed 5 times with PBS 0.01% Tween-20 (Sigma-Aldrich Chemie GmbH, Buchs, Switzerland). […] Plates were incubated for 1 hour at RT, washed 5 times with PBS 0.01% Tween-20 and the TMB substrate (Bio-rad Laboratories AG, Reinach, Switzerland) was added to the plates and the reaction stopped after 5 minutes by adding H₂SO₄. Absorbance was then read at 450 nm by a microplate reader (Biotek, USA; distributor: WITTEC AG, Littau, Switzerland). Biacore experiments were specifically conducted with Hexa-hzG3V9 and Hexa-hz1D10v1 which are dAb-Fc fusion proteins. […] Binding of human and cyno OX40-Fc molecules was determined by successively injecting these proteins on the 4 flow-paths (flow-path 1 and 3 being used as references) at a concentration of 200 nM and a flow rate of 30 uL/min for 240 seconds. Regeneration between the two injections was done using 3M MgCl2, at 30 uL/min for 60 seconds. Using these two approaches, human/rat OX40 binding was assessed (table 16).

A further test addresses T1, human OX40-Fc (human).
T1 construct: also called recombinant human OX40-Fc; human OX40 (HHHH)
Kind of test: ELISA on coated human OX40-Fc, antibody 10 µg/ml. The method, then:
as §1
For orientation: In an ELISA, binding on a coated surface is turned into a signal by an enzyme label.

Test [1] concerns the target T2, human OX40 on cells (human, UniProt P43489 29-277).
T2 sequence (looked up): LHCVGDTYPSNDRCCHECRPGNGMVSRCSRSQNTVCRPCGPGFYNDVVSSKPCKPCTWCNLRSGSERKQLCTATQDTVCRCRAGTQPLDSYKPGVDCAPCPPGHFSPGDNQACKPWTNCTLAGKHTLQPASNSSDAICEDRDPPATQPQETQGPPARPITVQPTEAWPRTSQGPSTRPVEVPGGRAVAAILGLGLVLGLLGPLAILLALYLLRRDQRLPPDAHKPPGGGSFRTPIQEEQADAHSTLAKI
Description: cell-based or functional assay.

In test [2] the target is T3, recombinant human OX40-his protein (human, UniProt P43489 29-214).
T3 construct: Secreted via the native signal peptide, which lies within residues 1-214; also called Human OX40R-His; histidine tagged human OX40 receptor extracellular domain
T3 sequence: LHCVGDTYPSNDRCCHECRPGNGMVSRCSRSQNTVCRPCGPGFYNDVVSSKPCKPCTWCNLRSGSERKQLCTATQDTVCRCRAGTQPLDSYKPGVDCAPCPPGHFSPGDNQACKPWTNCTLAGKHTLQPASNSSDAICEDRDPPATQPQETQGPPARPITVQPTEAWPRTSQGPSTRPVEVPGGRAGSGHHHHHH
Kind of test: SPR (BIAcore 2000), antibody captured on Protein A, OX40-his injected. The protocol:
SPR analysis was used to measure the association and dissociation rate constants for the binding kinetics of the anti-OX40 antibodies. The binding kinetics were measured on a BIAcore 2000 (BIAcore-GE Healthcare Europe GmbH, Glattbrugg, Switzerland) at room temperature and analyzed with the BiaEvaluation software (v4.1, GE Healthcare Europe GmbH).
Measurements were performed on CM5 sensor chips (Biacore 2000, GE Healthcare Europe GmbH, Cat. No: BR-1000-14) individually coupled with Protein A (Sigma, Buchs, Switzerland, Cat. No: P7837) using a commercial amine coupling kit (GE Healthcare Europe GmbH, Cat. No: BR-1000-50). 200-600 RUs of humanized antibody were captured. Dilution series of OX40-his were injected at a flow rate of 10 μl/min in HBS-EP buffer (GE Healthcare Europe GmbH, Cat. No: BR1001-88). After each binding event, the surface was regenerated with 10 μl of glycine buffer pH 1.5. Experimental data were processed using a 1:1 Langmuir model with local Rmax. The dissociation time was about 7 min. Measurements were performed in duplicates or triplicates and included zero-concentration samples for referencing. Both Chit and residual values were used to evaluate the quality of a fit between the experimental data and individual binding models.
Background: In SPR one partner is held on a chip, and binding of the other changes the refractive index at the surface.

Test [3] has as its target T2, human OX40 on cells. Kind of test: flow cytometry on HPB-ALL cells, 10 µg/ml antibody. The protocol:
HPB-ALL cells (DSMZ, Braunschweig, Germany, Cat. No: ACC483) were used as a human OX40 positive cell line for FACS staining. HPB-ALL were maintained in RPMI 1640 supplemented with 10% FCS and 100 U/ml Penicillin and 100 μg/ml streptomycin. 4×10e5 HPB-ALL cells in FACS buffer (PBS supplemented with 1% BSA and 0.1% sodium azide) were incubated for 45 min on ice with the anti-OX40 antibody of interest kept at a concentration of 10 μg/ml An irrelevant human IgG1 was used as an isotype control; the cells were incubated with a 1/200 dilution of anti-Human Fc-PE (EBioscience, Vienna, Austria) for 45 min on ice. Cells were then washed again and resuspended in 200 μl FACS buffer. The relative mean fluorescence of each sample was measured on a FACSCalibur instrument (BD Biosciences, Allschwil, Switzerland).
A first set of 16 humanized antibodies of human gamma one isotype were prepared. These first humanized candidates were assessed for transient expression in HEK293E cells and binding to HB-ALL cell by flow cytometry (Table 7).

Where a chain is given by its changes, count along the chain named.

rat OX40-Fc (rat), sequence (chain, as listed by the source limits assumed): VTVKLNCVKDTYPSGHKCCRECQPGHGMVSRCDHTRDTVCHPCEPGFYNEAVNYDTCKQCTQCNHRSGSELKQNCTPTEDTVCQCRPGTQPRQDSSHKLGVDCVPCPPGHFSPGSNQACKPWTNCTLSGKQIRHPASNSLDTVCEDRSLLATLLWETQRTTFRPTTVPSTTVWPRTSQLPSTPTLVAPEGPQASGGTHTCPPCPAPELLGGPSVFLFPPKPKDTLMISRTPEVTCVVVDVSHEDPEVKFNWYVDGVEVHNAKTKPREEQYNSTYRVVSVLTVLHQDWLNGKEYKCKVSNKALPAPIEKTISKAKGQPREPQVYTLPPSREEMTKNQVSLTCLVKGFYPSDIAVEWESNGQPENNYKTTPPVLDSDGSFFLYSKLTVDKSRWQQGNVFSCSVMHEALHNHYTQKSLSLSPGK

B1: 9B12 IgG1 (antibody, V domains shown)
VH: QVQLQESGPGLVKPSQTLSLTCAVYGGSFSSGYWNWIRKHPGKGLEYIGYISYNGITYHNPSLKSRITINRDTSKNQYSLQLNSVTPEDTAVYYCARYKYDYDGGHAMDYWGQGTLVTVSS
VL: DIQMTQSPSSLSASVGDRVTITCRASQDISNYLNWYQQKPGKAPKLLIYYTSKLHSGVPSRFSGSGSGTDYTLTISSLQPEDFATYYCQQGSALPWTFGQGTKVEIKR
notes: also called OX40mab24
As for B1, in the test with rat OX40-Fc, the binding result is listed as “no binding (tested: 10 µg/ml)”. In the test with human OX40-Fc, the binding result is listed as “binds”. Besides, in the test with human OX40 on cells [1], the “% donor responder (>2), SEB assay, IL-2 release” value (shortened to “% donor responder”) was found to be 50% and the “Mean, normalized IL-2 release, SEB assay” value amounted to 2.36.

B2: 1A7 IgG1 (antibody, V domains shown)
VH: EVQLVQSGAEVKKPGASVKVSCKASGYTFTDSYMSWVRQAPGQGLEWIGDMYPDNGDSSYNQKFRERVTITRDTSTSTAYLELSSLRSEDTAVYYCVLAPRWYFSVWGQGTLVTVSS
VL: B1 VL with K53R, H55R, Y71F, S92H, A93T, W96P
B2: the binding result with human OX40-Fc is on record as “binds”.

B3: Tri-8 (bispecific antibody, human IgG1, kappa, L234A L235A)
heavy 1: QVQLVQSGAEVKKPGASVKVSCKASGYTFTRYYMHWVRQAPGQGLEWMGWIYPGEGSTKYAQKFQGRVTMTRDTSISTAYMELSRLRSDDTAVYYCAREYGNYDYWGQGTLVTVSSASTKGPSVFPLAPSSKSTSGGTAALGCLVKDYFPEPVTVSWNSGALTSGVHTFPAVLQSSGLYSLSSVVTVPSSSLGTQTYICNVNHKPSNTKVDKKVEPKSCDKTHTCPPCPAPEAAGGPSVFLFPPKPKDTLMISRTPEVTCVVVDVSHEDPEVQFKWYVDGVEVHNAKTKPREEQYNSTFRVVSVLTVLHQDWLNGKEYKCKVSNKALPAPIEKTISKTKGQPREPAVYTLPPSREEMTKNQVKLVCLVTGFYPSDIAVEWESSGQPENNYYTTPPMLDSDGSFSLVSWLNVDKSRWQQGNIFSCSVMHEALHNRFTQKSLSLSPGGGGGTEVQLVESGGGLVQPGGSLRLSCAVSGYSITSDYAWNWIRQAPGKCLEWMGYISYSGSTAYNPSLKSRITISRDTSKNTFYLQMSSLRAEDTAVYYCARGPYNYLAYWGQGTLVTVSSGGGGSGGGGSGGGGSDIQLTQSPSSLSASVGDRVTITCRASESVDNYGISFMNWFQQKPGKAPKLLIYAASNQKSGVPSRFSGSGSGTDFTLTISSLQPEDFATYFCQQSKEVPLTFGCGTKVEIL
heavy 2: QVQLVQSGAEVKKPGASVKVSCKASGYTFTRYYMHWVRQAPGQGLEWMGWIYPGEGSTKYAQKFQGRVTMTRDTSISTAYMELSRLRSDDTAVYYCAREYGNYDYWGQGTLVTVSSASTKGPSVFPLAPSSKSTSGGTAALGCLVKDYFPEPVTVSWNSGALTSGVHTFPAVLQSSGLYSLSSVVTVPSSSLGTQTYICNVNHKPSNTKVDKKVEPKSCDKTHTCPPCPAPEAAGGPSVFLFPPKPKDTLMISRTPEVTCVVVDVSHEDPEVKFNWYVDGVEVHNAKTKPREEQYNSTYRVVSVLTVLHQDWLNGKEYKCKVSNKALPAPIEKTISKAKGQPREPEVATFPPSRDELTKNQVTLVCLVTGFYPSDIAVEWESNGQPENNYKTDPPLLESQGSFALSSRLRVDKSRWQQGNVFSCSVMHEALHNHYTQKSLSLSPGK
light: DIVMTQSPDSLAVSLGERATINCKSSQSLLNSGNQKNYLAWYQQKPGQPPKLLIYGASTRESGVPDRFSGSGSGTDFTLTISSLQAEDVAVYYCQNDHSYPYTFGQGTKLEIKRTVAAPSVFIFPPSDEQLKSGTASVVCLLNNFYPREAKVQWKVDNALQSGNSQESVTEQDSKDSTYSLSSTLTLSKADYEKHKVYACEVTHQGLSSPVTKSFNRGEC
B3: in the test with human OX40 on cells [1], the “% donor responder” value is 0% and the “Mean, normalized IL-2 release, SEB assay” value worked out at 0.96.

B4: 106-222 IgG1 (antibody, V domains shown)
VH: QVQLVQSGSELKKPGASVKVSCKASGYTFTDYSMHWVRQAPGQGLKWMGWINTETGEPTYADDFKGRFVFSLDTSVSTAYLQISSLKAEDTAVYYCANPYYDYVSYYAMDYWGQGTTVTVSS
VL: DIQMTQSPSSLSASVGDRVTITCKASQDVSTAVAWYQQKPGKAPKLLIYSASYLYTGVPSRFSGSGSGTDFTFTISSLQPEDIATYYCQQHYSTPRTFGQGTKLEIKR
As to B4, in the test with rat OX40-Fc, the binding result is “no binding (tested: 10 µg/ml)”. Further, the binding result with human OX40-Fc is given as “binds”. In the test with human OX40 on cells [1], the “% donor responder” value is 6% and the “Mean, normalized IL-2 release, SEB assay” value was 0.86.

B5: 11D4 IgG2 (antibody, V domains shown)
VH: EVQLVESGGGLVQPGGSLRLSCAASGFTFSSYSMNWVRQAPGKGLEWVSYISSSSSTIDYADSVKGRFTISRDNAKNSLYLQMNSLRDEDTAVYYCARESGWYLFDYWGQGTLVTVSS
VL: DIQMTQSPSSLSASVGDRVTITCRASQGISSWLAWYQQKPEKAPKSLIYAASSLQSGVPSRFSGSGSGTDFTLTISSLQPEDFATYYCQQYNSYPPTFGGGTKVEIKR
Take B5: the binding result with rat OX40-Fc is given as “no binding (tested: 10 µg/ml)”. In the test with human OX40 on cells [1], the “% donor responder” value is 18% and the “Mean, normalized IL-2 release, SEB assay” value was determined as 1.87.

B6: Humanized 7H11 VH1/VL1 IgG1 (antibody, V domains shown)
VH: QVQLVQSGAEVKKPGASVKVSCKASGYTFTRYYMHWVRQAPGQGLEWMGWIYPGDGSTKYSQKFQGRVTITRDTSASTAYMELSSLRSEDTAVYYCAREYGNYDYWGQGTLVTVSS
VL: DIVMTQSPDSLAVSLGERATINCKSSQSLLNSGNQKNYLAWYQQKPGQPPKLLIYGASTRESGVPDRFSGSGSGTDFTLTISSLQAEDVAVYYCQNDHSYPYTFGQGTKLEIKR
notes: human IgG1, kappa; also called Humanized VH1-VL1 IgG1
Turning to B6, in test [2], the Kd came to 35 nM, the koff came to 0.00058 s⁻¹ and the kon was 16700 M⁻¹ s⁻¹. Besides, the MFI with human OX40 on cells [3] came to 120.

B7: Humanized 7H11 VH2/VL1 IgG1 (antibody, V domains shown)
VH: B6 VH with K59N, S61A, I70M, A76I, S85R, E89D
VL: B6 VL
notes: human IgG1, kappa; also called Humanized VH2-VL1 IgG1
With B7, in test [2], the Kd stood at 21 nM, the off-rate constant (koff) was found to be 0.0013 s⁻¹ and the association rate constant (kon) stood at 58500 M⁻¹ s⁻¹. In addition, the MFI in the test with human OX40 on cells [3] amounted to 120.

B8: Humanized 7H11 VH3/VL1 IgG1 (antibody, V domains shown)
VH: B6 VH with W50I, K59S, S61A, I70M, A76T, A79V
VL: B6 VL
notes: human IgG1, kappa; also called Humanized VH3-VL1 IgG1
Take B8: in test [2], the Kd amounted to 80 nM, the koff worked out at 0.0055 s⁻¹ and the on-rate (kon) amounted to 62500 M⁻¹ s⁻¹. Moreover, the MFI with human OX40 on cells [3] was 121.

B9: 2H6_hzG3v9_8 (bispecific antibody, human IgG1, kappa, L234A L235A)
heavy: not shown
light: DIQLTQSPSSLSASVGDRVTITCRASESVDNYGISFMNWFQQKPGKAPKLLIYAASNQKSGVPSRFSGSGSGTDFTLTISSLQPEDFATYFCQQSKEVPLTFGQGTKVEIKRTVAAPSVFIFPPSDEQLKSGTASVVCLLNNFYPREAKVQWKVDNALQSGNSQESVTEQDSKDSTYSLSSTLTLSKADYEKHKVYACEVTHQGLSSPVTKSFNRGEC
For the molecule B9, in the test with human OX40 on cells [1], the “% donor responder” value is 100% and the “Mean, normalized IL-2 release, SEB assay” value came to 48.4.
